One protein from PMC3365590 (Journal of Molecular Biology, 2010) can be followed below.

The data set deals with the molecule itself. In words: SEC.

B1: ROK fructokinase YdhR from Bacillus subtilis, native protein (size exclusion chromatography) (enzyme, B. subtilis, UniProt O05510 1-299, looked up)
chain: MLGGIEAGGTKFVCAVGREDGTIIDRIEFPTKMPDETIEKVIQYFSQFSLQAIGIGSFGPVDNDKTSQTYGTITATPKAGWRHYPFLQTVKNEMKIPVGFSTDVNAAALGEFLFGEAKGLDSCLYITIGTGIGAGAIVEGRLLQGLSHPEMGHIYIRRHPDDVYQGKCPYHGDCFEGLASGPAIEARWGKKAADLSDIAQVWELEGYYIAQALAQYILILAPKKIILGGGVMQQKQVFSYIYQYVPKIMNSYLDFSELSDDISDYIVPPRLGSNAGIIGTLVLAHQALQAEAASGEVRS
B1: the “stoichiometry N” value worked out at 2.
